The target of test [1] is T1, IR4 peptide (Borrelia burgdorferi strain B31, biotin-labeled on the N terminus).
T1 construct: also called invariant region 4
T1 peptide: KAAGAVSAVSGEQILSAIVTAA
The test can be described thus: not given; it says that supporting data are given elsewhere in the disclosure (ELISA).

Test [2] addresses T2, IR6 peptide (Borrelia burgdorferi strain B31, biotin-labeled on the N terminus).
T2 construct: Synthetic peptide based on VlsE of strain B31 (GenBank U76405); also called invariant region 6
T2 peptide: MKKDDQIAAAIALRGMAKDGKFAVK
The test can be described thus: ELISA of purified rMAb on coated peptide.

In test [3] the target is T3, recombinant VlsE protein (of strain B31) (Borrelia burgdorferi strain B31).
T3 construct: domain: vlsE cassette region (including the IR1 through VR6 regions); Preparation of about 65% purity; Used as immunogen, as ELISA antigen and on beads; also called VISE; recombinant B31 VlsE
The test can be described thus: titration on VlsE, given as ED50; method not given.

B1: antibody with VH SEQ ID NO: 5 and VL SEQ ID NO: 6 (antibody, V domains shown)
VH: QSVEESGGRLVTPGTPLTLTCTVSGFPLSSYSMAWVRQAPGKGLEYIGFINTDGSAYYASWAKGRITISKTSTTVELKITSPTTEDTATYFCGTGNIWGPGTLVTVSS
VL: AQVLTQTPSSVSAAVGGTVTINCQASQSVSNNNVLAWFQQKPGQPPKRLIYSALTLDSGVPSRFKGSGSGTHFTLTISGVQCDDAATYYCAGGYDCSSNDCIAFGGGTEVVVK
For the molecule B1, the binding result in test [1] is recorded as “binds”.

B2: antibody with VH SEQ ID NO: 7 and VL SEQ ID NO: 8 (antibody, V domains shown)
VH: QSVEESGGRLVTPGTPLTLTCTVSGFSLSSYSMGWVRQAPGKGLEYIGMIISNNSTYYASWAKGRITISKTSTTVELKITSPTTEDTATYFCGTGNIWGPGTLVTVSS
VL: AQVLTQTPASVSAAVGGTVTINCQASQSTSNNNALAWFQQKPGQPPKRLIYSALTLDSGVPSRFKGSGSGTHFTLTISGVQCDDAATYYCAGGYDCSSNDCITFGGGTEVVVK
B2: the binding result in test [1] is on record as “binds”.

B3: antibody with VH SEQ ID NO: 3 and VL SEQ ID NO: 4 (antibody, V domains shown)
VH: QSLEESGGGLFKPTDTLTLTCTVSGIDLSSYAMIWVRQAPGKGLEWIGYIWSSGRIWYASWAKGRFTISRTSTTVDLKLASPTTEDTATYFCARLWDIWGPGTLVTVSS
VL: AQVLTQTPSSVSAAVGGTVTISCQASQSLYNGVNLAWYQQKPGQPPKLLIFGASNLESGVSSRFRGSGSGTQFTLTISGVQCDDAATYYCLGEFSCSSADCLAFGGGTEVVVK
For the molecule B3, the binding result in test [1] was “binds”.

B4: 1D11 recombinant monoclonal antibody (re-cloned from the second most abundant VH and VL sequences) (antibody, V domains shown)
VH: QSLVESGGGLVQPEGSLTLTCKASGFSFSSGYDMCWVRQAPGKGLEYIACIDAGDDITHYASWVKGRFTVSKTSSTTVTLQLNSLTVADTATYFCGRFWDLWGPGTLVTVSS
VL: SVLTQTPSPVSAAVGGTVTINCQSSQSVYDSTWLGWYQQKPGQPPKLLIYKASNLASGVPSRFKGSGSGTHFTLTISDLECDDAATYYCVGGYSGSVDNWAFGGGTEVVVK
notes: Rabbit recombinant monoclonal IgG; the rabbit constant regions are cited to the literature; The variable fragments were cloned into pcDNA3.4 and expressed in mouse cells; also called ID11; new rMAb
On to B4, for which, in test [2], the binding result is on record as “binds”. Further, the EC50 in test [3] came out at 0.0109 µg/mL.
